Assay results taken from the NTF2 design screens of Basanta et al. (2020).

experiment: protease stability score; higher = more stable; yeast display proteolysis, trypsin and chymotrypsin;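 also: relative to predicted unfolded state with 0 unfolded-like and 1 meaning tenfold more protease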

| Sequence | protease stability score |
| --- | --- |
| LEFEEHLHRWVNFYLNVHRTGDEEHIEKLADPDMRIEVGDKELHGRERAYEFWRRYLEEARLHDMKIRSVELVGDKIILDTEIHSIVGDKHIRERLEIILTKINGRWMLKSMRVQ | 1.45 |
| DHHEEASHRVIEILLRAHRTGDWHELLRMMDPNTMLIVGDKTFHGREELEKILRHFVERAITIHDIKIESVENQGDKIHVHGHIDKRVNGRQVSIETEIDILKVNGRWFISTLRYH | 1.89 |
| DDRDEVVEVASRLWMEIVETGDEDLFIRLLDPRTRIHIGDKTLHGREQVLDFLREHNRNLGIDRVEVRVERTEIQGEKVVVHSINIFNGKEWHVITIAHKINGRWITKEFHLH | 0.834 |
| DEDHKIIEKLFRHWLELLLTGDEEEIEKQMDPHARIIINGRHTHGRDDIRRLLEEIRIRHLDIERLEIRIYGNKAVALSETRVEVRIGDKEFHVDYRIILIIEKVDGRWVKRSLELIVV | 1.71 |
| SHEDELNEKIAKTFFKDLLTGDEDSITHLLDPNARVHIHVNGRHILIHGREWLEYLKKHARIRHFELHDMEIQGDKLIFDVEVVIEYGDKVIERRSEEILILFNGRVTSYHLIIK | 1.2 |
| DEWEKLYEIALEIFLEVFKTGNEEMFLKQADPHVRLDVGDKHYHGREHVVKFLIDELKRVKNLKVSSEHESFVGDYAHMHIDLDIDGRRVDVEIVSLKVDGKWVLREVRLH | 1.34 |
| SEEEHEMERHEREFRDVAETGDERDWTNLADPNVRFEDEDEVLVGREDWHEYVRRVDHFHVRRLDYEHFSVIDGRIDIEGNMDIELNFDGQSHRMRVHVRIITTKINGVWLFESVHIQ | 1.75 |
| SEIHDLITTMSRLFWDVIRTGDFEALEKLLDPHTRFEFLIGDKTEEYVGRHNVVRAIMDIWERLGIDHMHLKNVRYQGEKSDIDTEMHFDGRTFDTKIIIVVIDGKLHNVSIEFR | 1.39 |
| DEHHEVSEKVAKLFLEIWETGDWKTLKRLADPRVRTHIIIGDKTINEHGRENYIRSTVEFLERFPNMRYEIREVRVIGDKIETQGEMNVNGKTFDVIIELIIIDGRIKEVRVENR | 1.08 |
| DEDDELMKRFVDLLLEQLQTGDWRYIARMVDPHVRSDVDIDGVHLKYHGREMYVKLFTDLGAKHMELKHIEVQGDKADIHSHVHFDGQEREIIIYSFKVNGRWRTKRLEVRTI | 0.932 |
| SDLEEEALNLAREWMHNWVTGNEEREEELLDPNVRSDINGRHFHGRERISRMIRYLLDEIRVHDVKEHDMEIQGEKVRIDGRIDGEVNGKRKILVMHFHIVVIDGVIHSVEVRIE | 1.18 |
| HEHEKWMEELVRRLKHHLRTGDFETWKELADPNAKVQLVVGDKHVESIGREEMEKWFHDHMMRLGIERFEFNIQSIYVQGEKIHLLGRLHFNGQDERAEIILVVVNGRIKQIHFHLH | 1.2 |
| DELTRQMRTFAERWIHAERTGDEEILRELMDPHAKLDVKQGDKRHDWHGRERITEFIRRMGIKHIQVDHVELQGEKIHMHVTMYVDGQVLDSTLKLWVVDGVTKSVEIEFK | 1.2 |
| DEEEHSAEHAIRILIELLYTGDEDQLERFMDPNTRLHIYFEGHEIHHHGMELISEIFSEIIHRIKNITYRVEDFHLVNGRVHLHGRWNINGKRTKEHWVVLKVDGVWILERVHIHIQ | 1.27 |
| DERQEEARKMFEDVYKAVWTGDEEELLRLMDPNVRIDIDGKILHGREALSEEWKRVDHVHHEHHEDMKVIGNKLHVRGHIEVDIDGRNLRYTIDNYLVVVNGRIKEVKEREV | 0.664 |
| DEEKERMEELLRLWVEAVRTGDEETLHKLMDPDVRIEYGDKDHHGREEMHRMMREWYERVDVINTYHVRRIKIVDGKARVDAELDGTIDGKRVIFREILISSKYNGQWTVTSISIK | 1.43 |
| DEEEKRAREQYKLMFHNLQTGDEDTLKKLMDPNVRLDINGQEHHGRENVVKFWEHFIRKLGVKHMEWKDRDVEITENHVNFHGYIIIDIDGQERRLHTIIILRKVDGKWVVESLVFK | 2.23 |
| SEDRENFHRFWKELLRYYLTGDEDALTRMFDPNAQMIYGDKHYHGREVLEFIHHQVDVFRSVEIESSRSINGVVIIHVRLNGEYNGQQENTEFTLVFEKINGRWRIKQVRSE | 1.11 |
| NEDEESAERAVHLLRELIYTGDEDRMLKYADPNVKIVFNGVEMHGMDTFLRVFHRIKNLTIRRIHIDHIHLQGDKIELNVRMDTEFNGRHHDDSIHIRTLKVDGVWINHRTEYV | 1.04 |
| DEHNKLAILIVEILWHLWETGNEEELVKLADPNYKHDVNGKISVGREEFEKTTHYLLNHLRFKHRHVRDEKVQGNKFHVDGQLNIDVNGREVRFDLRVVYIIVNGRLRSEHIDIV | 1.71 |
| DEDDELSRKAREFTSEVLRTGDEHSLLRMADPNTRNIVGNKEEHGWEHFEHFVREHWRRFGITNVDVKLEDLRVVDGRIEADMRVRVNGVERTWHFLIRKIDGKWRMESIEIR | 0.416 |
| DDSDEHTKRATDELRHNLRTGDEERILKLVDPNARIDINGVKVIGWHMVEELVRKFWEEMRVEELEIHDMKVYGDKAIVDGYVEQRQGNKFIYIKTEIIKVKIDGRWILTELRFR | 0.57 |
| TEDEELTSRANKEFQEFETTGDEEVLKRLFDPNTRLDVNGQDRHGRDEVVHLLVRMIHKLGIDHVSLKEVRIVNGKLDLNLTINVGEKRINTRLIHKKVNGRWVIETVEMG | 1.23 |
| SEEEEDARRMMEILIKTLKTGDWRTIRRLVDPNVRVDFNGVDDHGRENWLKHVLHIRFKRIYIRDVRVYDGRVHIHGEINIEFDGRSDHYEVEIHIDKVDGRWVITHILIV | 2.26 |
| DEEEELLKDLLRKWLEAMRTGDWEELERLLDPHVRIHIGDKDIHGRELFIELHERELKRIKNVKIVIDDKHIEFQGDKARVDGKLQEQVGDKEITHRVIIIMRVIDGKFESMEVRYV | 1.08 |
